US20180155451A1 (published 2018)
Changes are numbered by the printed parent chain. Numbers in names are those of the source. Where two headings read alike, the source gives them in different places.

T1: FcgRIIa type R extracellular domain with C-terminal His tag (human, UniProt P12318 34-217)
T1 construct: extracellular domain; also called FcgRIIaR; FcgRIIa R; not shown: His tag at the C terminus
T1 sequence (looked up): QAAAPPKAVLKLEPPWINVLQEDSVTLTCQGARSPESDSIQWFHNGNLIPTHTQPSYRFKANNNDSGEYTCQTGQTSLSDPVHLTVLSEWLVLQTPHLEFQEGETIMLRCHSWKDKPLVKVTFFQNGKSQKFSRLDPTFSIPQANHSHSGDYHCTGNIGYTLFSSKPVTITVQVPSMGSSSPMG

T2: FcgRIIa type H extracellular domain with C-terminal His tag (human, UniProt P12318 34-217)
T2 construct: extracellular domain; also called FcgRIIaH; FcgRIIa H; not shown: His tag at the C terminus
T2 sequence (looked up): T1 sequence (looked up) with R134H

T3: FcgRIIb extracellular domain with C-terminal His tag (human, UniProt P31994 43-217)
T3 construct: extracellular domain; Expressed in FreeStyle293 cells; also called FcγRIIb; 2b; not shown: His tag at the C terminus
T3 sequence (looked up): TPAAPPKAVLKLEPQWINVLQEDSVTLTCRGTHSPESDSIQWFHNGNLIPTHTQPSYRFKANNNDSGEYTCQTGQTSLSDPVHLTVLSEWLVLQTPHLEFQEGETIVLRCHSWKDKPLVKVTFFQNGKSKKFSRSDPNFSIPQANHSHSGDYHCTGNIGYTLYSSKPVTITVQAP

B1: IL6R-BP208/IL6R-L (antibody, human IgG1, kappa)
heavy: QVQLQESGPGLVKPSETLSLTCAVSGHSISHDHAWSWVRQPPGEGLEWIGFISYSGITNYNPSLQGRVTISRDNSKNTLYLQMNSLRAEDTAVYYCARSLARTTAMDYWGEGTLVTVSSASTKGPSVFPLAPSSKSTSGGTAALGCLVKDYFPEPVTVSWNSGALTSGVHTFPAVLQSSGLYSLSSVVTVPSSSLGTQTYICNVNHKPSNTKVDKKVEPKSCDKTHTCPPCPAPDLLGDDSVFLFPPKPKDTLMISRTPEVTCVVVDVSDEDGEVKFNWYVDGVEVHNAKTKPREEQYNSTYRVVSVLTVLHQDWLNGKEYKCKVSNKALPRPIEKTISKAKGQPREPQVYTLPPSRDELTKNQVSLTCLVKGFYPSDIAVEWESNGQPENNYKTTPPVLDSDGSFFLYSKLTVDKSRWQQGNVFSCSVMHEALHNHYTQESLSLSP
light: not shown
notes: Homodimer; IL6R-BP208 is IL6R-B3 with E233D, G237D, P238D, H268D, P271G and A330R
B2: IL6R-BP253/IL6R-L (antibody, human IgG1, kappa)
heavy: B1 heavy with D235E, D239G, D240P, S269E, D270H, G273P, L330F, R332A
light: not shown
notes: Homodimer; IL6R-BP253 is IL6R-B3 with S267E and L328F

What was measured:
[1] = target: T1, FcgRIIa type R extracellular domain …; experiment: SPR (Biacore), antibody captured on chip, soluble FcgR as analyte, kinetic 1:1 fit
[2] = target: T2, FcgRIIa type H extracellular domain …; experiment: SPR (Biacore), antibody captured on chip, soluble FcgR as analyte; too weak for kinetics, KD from steady-state 1:1 equation
Description: (§1) KD can be calculated by substituting the values of Rmax, RI, and C into this equation. The values of RI and C can be determined from the sensorgram of the measurement results and measurement conditions. Rmax was calculated according to the following method.

[3] = target: T4, FcgRIIIa type V extracellular domain with C-terminal His tag (human, UniProt P08637 17-208); experiment: as above
T4 construct: extracellular domain; also called FcgRIIIaV; FcgRIIIa V; not shown: His tag at the C terminus
T4 sequence (P08637 17-208 F176V): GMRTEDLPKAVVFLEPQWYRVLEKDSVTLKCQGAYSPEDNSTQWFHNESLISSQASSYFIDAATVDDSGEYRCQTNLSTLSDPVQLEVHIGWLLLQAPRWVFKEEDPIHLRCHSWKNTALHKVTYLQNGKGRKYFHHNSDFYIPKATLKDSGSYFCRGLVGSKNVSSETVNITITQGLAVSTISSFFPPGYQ
Description: as §1

[4] = target: T2, FcgRIIa type H extracellular domain …; experiment: as above; remark: listed apart in the source
Description: as §1

[5] = target: T4, FcgRIIIa type V extracellular domain …; experiment: as above; remark: listed apart in the source
Description: as §1

[6] = target: T1, FcgRIIa type R extracellular domain …; experiment: SPR (Biacore), antibody captured on chip, soluble FcgR as analyte, kinetic 1:1 fit; remark: listed apart in the source
Description: (§2) The variants were assessed for the binding activity to FcgR Ia, FcgR IIaR, FcgR IIaH, and FcgRIIb according to the method described in Reference Example 8.
(§3) Analysis of interaction between obj ective antibody and the FcγR was carried out using Biacore T100 (GE Healthcare), Biacore T200, Biacore A100, and Biacore 4000. HBS-EP+ (GE Healthcare) was used as the running buffer, and the measurement temperature was set to 25° C. Chips produced by immobilizing the antigen peptide by the amine coupling method to a Series S sensor Chip CM5 (GE Healthcare), chips produced by allowing preliminarily biotinylated antigen peptides to interact with and immobilize onto a Series S Sensor Chip SA (certified) (GE Healthcare), chips produced by immobilizing Protein L (ACTIGEN, BioVision) to Series S Sencor Chip CM5 (GE Healthcare), or chips produced by immobilizing Protein A/G (Thermo Scientific) to Series S Sencor Chip CM5 (GE Healthcare) were used. Antibodies of interest were captured onto these chips, and allowed to interact to each FcγR diluted with running buffer. To regenerate and repeatedly use the chip, the antibodies captured onto the chip were washed off by reacting 10 mM glycine-HCl, pH 1.5.

[7] = target: T2, FcgRIIa type H extracellular domain …; experiment: as above
[8] = target: T3, FcgRIIb extracellular domain with …; experiment: as above
[9] = target: T5, FcgRIa extracellular domain with C-terminal His tag (human, UniProt P12314 16-292); experiment: as above
T5 construct: extracellular domain; Expressed in FreeStyle293 cells; also called FcγRIa; not shown: His tag at the C terminus
T5 sequence (P12314 16-292): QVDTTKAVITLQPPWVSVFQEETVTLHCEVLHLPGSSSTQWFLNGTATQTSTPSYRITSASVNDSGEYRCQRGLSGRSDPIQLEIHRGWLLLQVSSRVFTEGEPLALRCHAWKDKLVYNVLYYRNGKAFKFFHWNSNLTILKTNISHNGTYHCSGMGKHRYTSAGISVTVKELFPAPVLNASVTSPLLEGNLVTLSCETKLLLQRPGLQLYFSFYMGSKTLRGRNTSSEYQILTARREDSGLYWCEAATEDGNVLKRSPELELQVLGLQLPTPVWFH

[10] = target: T1, FcgRIIa type R extracellular domain …; experiment: SPR (Biacore); KD of IL6R-B3/IL6R-L for this FcgR divided by KD of the sample
Description: as §3

[11] = target: T2, FcgRIIa type H extracellular domain …; experiment: as above
Description: as §3

[12] = target: T3, FcgRIIb extracellular domain with …; experiment: as above
Description: as §3

[13] = target: T4, FcgRIIIa type V extracellular domain …; experiment: SPR (Biacore), antibody captured on chip, soluble FcgR as analyte, kinetic 1:1 fit
[14] = target: T1, FcgRIIa type R extracellular domain …; experiment: SPR (Biacore); KD of IL6R-B3/IL6R-L for this FcgR divided by KD of the sample; remark: listed apart in the source
Description: as §3

[15] = target: T2, FcgRIIa type H extracellular domain …; experiment: as above; remark: listed apart in the source
Description: as §3

[16] = target: T3, FcgRIIb extracellular domain with …; experiment: as above; remark: listed apart in the source
Description: as §3

[17] = target: T2, FcgRIIa type H extracellular domain …; experiment: SPR (Biacore), antibody captured on chip, soluble FcgR as analyte, kinetic 1:1 fit; remark: listed apart in the source
Description: as §2, §3

[18] = target: T3, FcgRIIb extracellular domain with …; experiment: as above; remark: listed apart in the source
Description: as §2, §3

[19] = target: T5, FcgRIa extracellular domain with …; experiment: as above; remark: listed apart in the source
Description: as §2, §3

[20] = target: T3, FcgRIIb extracellular domain with …; experiment: SPR (Biacore); KD of the sample for FcgRIIaR divided by its KD for FcgRIIb (selectivity for FcgRIIb)
Description: as §3

| Binder | Kd [1] | Kd [2] | Kd [3] | Kd [4] | Kd [5] | Kd [6] | Kd [7] | Kd [8] | Kd [9] | Relative KD [10] | Relative KD [11] | Relative KD [12] | Kd [13] | Relative KD [14] | Relative KD [15] | Relative KD [16] | Kd [17] | Kd [18] | Kd [19] | KD(IIaR)/KD(IIb) [20] |
| --- | --- | --- | --- | --- | --- | --- | --- | --- | --- | --- | --- | --- | --- | --- | --- | --- | --- | --- | --- | --- |
| B1 | 850 nM | 8300 nM | 53000 nM | 8300 nM | 53000 nM | 850 nM |  |  |  |  |  |  |  |  |  |  |  |  |  |  |
| B2 | 2.3 nM |  | 7100 nM |  |  | 2.3 nM | 860 nM | 8.9 nM | 0.05 nM | 480 ratio | 0.9 ratio | 349 ratio | 400 nM | 480 ratio | 0.9 ratio | 349 ratio | 860 nM | 8.9 nM | 0.05 nM | 0.3 ratio |
